Patent publication US20240374744

Tested on: huHF(+)-DOX (huHF(+) protein nanoparticle-doxorubicin conjugate)
Sequence (chain, as listed by the source): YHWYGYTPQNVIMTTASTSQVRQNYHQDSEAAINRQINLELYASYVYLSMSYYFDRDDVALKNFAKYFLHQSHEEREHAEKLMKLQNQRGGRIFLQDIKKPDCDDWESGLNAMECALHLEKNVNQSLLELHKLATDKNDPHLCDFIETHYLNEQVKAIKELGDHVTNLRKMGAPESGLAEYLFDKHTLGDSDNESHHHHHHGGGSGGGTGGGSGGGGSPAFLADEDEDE

Substance | cleavage of the conjugate and release of doxorubicin (native-PAGE, UV absorbance), enzyme in LPM mixture | cleavage of the conjugate and release of doxorubicin (native-PAGE, Coomassie staining, UV absorbance of doxorubicin)
cathepsin B | it was observed that the peptide was not specifically cleaved thereby the drug was not selectively released | –
cathepsin D | it was observed that the peptide was not specifically cleaved thereby the drug was not selectively released | –
cathepsin E | – | From 3 hours after staining, it was visually observed that the portion to which the anticancer drug was bound in the conjugate was effectively cleaved by cathepsin E
cathepsin L | it was observed that the peptide was not specifically cleaved thereby the drug was not selectively released | –
